The values that follow come from paper PMC12021450.

Assay [1] deals with Trypanosoma brucei MSC-associated protein 1 (MCP1), wild type, His6-tagged (Trypanosoma brucei). The experiment in a line: mass photometry; protein alone, 50 nM final in 50 mM HEPES-KOH pH 7.6, 50 mM NaCl, 2 mM MgCl2, 0.5 mM TCEP; pre-incubated at 2 uM at room temperature for 10 min; no tRNA; monomer to dimer.
The target is the same in assay [2]. Kind of assay: mass photometry; 50 nM protein with 25 nM tRNA^Ala (complex formed at 2 uM protein : 1 uM tRNA^Ala, room temperature, 10 min) in 50 mM HEPES-KOH pH 7.6, 50 mM NaCl, 2 mM MgCl2, 0.5 mM TCEP; monomer to dimer.

The stoichiometry N is the number of molecules, sites or subunits per partner or assembly. Regarding “Trypanosoma brucei MSC-associated protein 1 (MCP1), wild type, His6-tagged (natural protein)”, in assay [1], the percent of the protein population that is dimeric came to 17% and the stoichiometry N stood at 2. In assay [2], this substance yielded a percent of the species in the dimer peak, with tRNA^Ala of 31% and a stoichiometry N of 2.
